For this series, the target named is CsrA (Pseudoalteromonas fuliginea BSW20308, UniProt A0A063KJE6 1-63). The series is described as follows: EMSA; 1 uM CsrA; 0.1-0.5 nM RNA, 40 mM NaCl, 4 mM Tris pH 8.0, 4 mM MgCl2, 4% glycerol, 100 mg/ml BSA (so in the source), 20 mM DTT, room temperature 30 min, native PAGE. To be noted: protein: recombinant; tags: C-terminal His6; chain copies: 2. (In general: In EMSA bound probe runs differently from free probe, usually more slowly.)

B1: Pf3 sRNA (structured_RNA)
RNA: AAUAAAAAAACGGAAAUAGCUAUAAGGAAAGUAGCGCGGCACGACUACAUAGCACAAGAUUGGUGCUACUAAAGGAAAUAAUAAAAAAGAGUCAGGAAGACCGAUAAUAAUAAAAACUCAUGGAAGUUUAAUAAUAAAAACAAAAUGGAAUGCUACAAGGAACGUAAAAAUAAUAACAAUACGGACUGAUAAUAAUAAAAAUAAUAAAGACUAAAAAAAGUCGAAGGGAGA
Take B1: the binding result is recorded as “binds”.

The values above are taken from paper PMC11882849, “Dynamic and intricate regulation by the Csr sRNAs in the Arctic Pseudoalteromonas fuliginea”.
